Data on four sequences can be found in patent publication US20190134153A1, “IMMUNOMODULATORY EFFECT OF INHALED KINASE INHIBITOR PEPTIDES IN LUNG” (MOERAE MATRIX, INC., priority 2017, published 2019).

What all share (assay): Kinase Profiling Assay
Assay type in all cases: biochemical
What all share (settings): 100 μM

Assay [1] has as its target Ret (V804L)(h) (Homo sapiens, UniProt P07949, V804L).
Assay [2] concerns the target PKBγ(h) (Homo sapiens, UniProt Q9Y243).
The target in assay [3] is DAPK2(h) (Homo sapiens, UniProt Q9UIK4).
Assay [4] has as its target T1, ULK3(h) (Homo sapiens, UniProt Q6PHR2).
T1 sequence (Q6PHR2 1-472): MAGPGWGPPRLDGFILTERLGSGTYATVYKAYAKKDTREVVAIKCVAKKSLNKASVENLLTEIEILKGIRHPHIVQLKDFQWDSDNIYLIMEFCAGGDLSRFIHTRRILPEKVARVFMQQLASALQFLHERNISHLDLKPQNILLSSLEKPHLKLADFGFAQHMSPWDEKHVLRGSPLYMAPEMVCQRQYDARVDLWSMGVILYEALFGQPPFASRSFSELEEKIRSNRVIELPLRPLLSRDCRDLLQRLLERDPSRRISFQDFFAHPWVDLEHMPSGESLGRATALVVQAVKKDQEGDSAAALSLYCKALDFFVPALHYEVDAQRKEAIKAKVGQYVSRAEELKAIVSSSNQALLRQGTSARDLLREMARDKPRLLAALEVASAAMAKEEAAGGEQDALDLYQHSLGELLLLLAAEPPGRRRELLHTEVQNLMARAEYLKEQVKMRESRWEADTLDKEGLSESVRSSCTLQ

For assay [5], the target named is T2, PKD2(h) (Homo sapiens, UniProt Q9BZL6).
T2 sequence (Q9BZL6 1-878): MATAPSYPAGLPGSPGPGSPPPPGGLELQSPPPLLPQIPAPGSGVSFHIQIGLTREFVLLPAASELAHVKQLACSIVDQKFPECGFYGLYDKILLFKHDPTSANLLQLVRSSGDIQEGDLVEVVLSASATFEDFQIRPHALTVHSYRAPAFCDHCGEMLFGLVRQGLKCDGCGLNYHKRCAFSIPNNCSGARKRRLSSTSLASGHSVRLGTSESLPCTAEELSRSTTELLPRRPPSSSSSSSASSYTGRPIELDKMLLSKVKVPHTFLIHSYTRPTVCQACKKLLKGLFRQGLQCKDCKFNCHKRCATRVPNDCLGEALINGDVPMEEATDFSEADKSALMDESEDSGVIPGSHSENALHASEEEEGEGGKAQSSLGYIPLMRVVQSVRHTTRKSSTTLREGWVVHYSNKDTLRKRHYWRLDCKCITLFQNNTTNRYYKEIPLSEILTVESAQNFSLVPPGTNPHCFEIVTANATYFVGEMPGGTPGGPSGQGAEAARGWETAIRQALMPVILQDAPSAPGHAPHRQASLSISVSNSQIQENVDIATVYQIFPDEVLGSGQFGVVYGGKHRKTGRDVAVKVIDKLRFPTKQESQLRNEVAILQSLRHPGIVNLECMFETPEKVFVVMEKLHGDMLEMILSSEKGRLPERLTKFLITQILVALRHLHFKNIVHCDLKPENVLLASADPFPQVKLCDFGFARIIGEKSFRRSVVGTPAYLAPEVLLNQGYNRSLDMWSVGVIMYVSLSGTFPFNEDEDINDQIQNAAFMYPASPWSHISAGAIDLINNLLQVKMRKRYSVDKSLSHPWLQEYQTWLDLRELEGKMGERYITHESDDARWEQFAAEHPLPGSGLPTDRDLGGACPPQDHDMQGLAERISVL

Assay [6] has as its target p70S6K(h) (Homo sapiens, UniProt P23443).
Assay [7] deals with PAK5(h) (Homo sapiens, UniProt Q9P286).
Assay [8] addresses FGFR2(h) (Homo sapiens, UniProt P21802).
The target in assay [9] is cSRC(h) (Homo sapiens, UniProt P12931).
The target of assay [10] is MST3(h) (Homo sapiens, UniProt Q9Y6E0).
The target of assay [11] is SAPK2a(h) (Homo sapiens, UniProt Q16539).
In assay [12] the target is T3, Rse(h) (Homo sapiens, UniProt Q06418).
T3 sequence (Q06418 41-890): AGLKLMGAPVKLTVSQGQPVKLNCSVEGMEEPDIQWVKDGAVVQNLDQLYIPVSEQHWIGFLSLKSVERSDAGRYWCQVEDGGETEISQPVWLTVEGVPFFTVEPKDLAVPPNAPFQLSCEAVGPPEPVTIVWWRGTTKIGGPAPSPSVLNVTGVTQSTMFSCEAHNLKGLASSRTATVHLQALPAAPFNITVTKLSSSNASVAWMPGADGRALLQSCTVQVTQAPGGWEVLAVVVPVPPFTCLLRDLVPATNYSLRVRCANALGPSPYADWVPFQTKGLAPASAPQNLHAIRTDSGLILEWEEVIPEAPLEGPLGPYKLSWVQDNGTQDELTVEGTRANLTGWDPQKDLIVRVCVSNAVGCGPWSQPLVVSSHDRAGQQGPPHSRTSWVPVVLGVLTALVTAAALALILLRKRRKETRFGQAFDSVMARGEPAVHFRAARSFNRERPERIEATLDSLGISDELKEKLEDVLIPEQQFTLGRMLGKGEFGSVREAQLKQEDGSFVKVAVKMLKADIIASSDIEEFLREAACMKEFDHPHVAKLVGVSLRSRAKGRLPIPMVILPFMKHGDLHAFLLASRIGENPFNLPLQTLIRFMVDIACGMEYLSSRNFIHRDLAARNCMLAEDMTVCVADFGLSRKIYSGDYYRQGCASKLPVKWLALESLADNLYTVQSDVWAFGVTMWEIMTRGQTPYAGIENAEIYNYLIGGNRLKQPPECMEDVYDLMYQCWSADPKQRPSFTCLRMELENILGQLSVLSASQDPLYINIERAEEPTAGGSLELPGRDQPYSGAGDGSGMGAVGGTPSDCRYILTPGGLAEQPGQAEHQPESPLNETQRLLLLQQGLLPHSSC

In assay [13] the target is SIK(h) (Homo sapiens, UniProt P57059).
SIK(h), sequence (P57059 whole entry): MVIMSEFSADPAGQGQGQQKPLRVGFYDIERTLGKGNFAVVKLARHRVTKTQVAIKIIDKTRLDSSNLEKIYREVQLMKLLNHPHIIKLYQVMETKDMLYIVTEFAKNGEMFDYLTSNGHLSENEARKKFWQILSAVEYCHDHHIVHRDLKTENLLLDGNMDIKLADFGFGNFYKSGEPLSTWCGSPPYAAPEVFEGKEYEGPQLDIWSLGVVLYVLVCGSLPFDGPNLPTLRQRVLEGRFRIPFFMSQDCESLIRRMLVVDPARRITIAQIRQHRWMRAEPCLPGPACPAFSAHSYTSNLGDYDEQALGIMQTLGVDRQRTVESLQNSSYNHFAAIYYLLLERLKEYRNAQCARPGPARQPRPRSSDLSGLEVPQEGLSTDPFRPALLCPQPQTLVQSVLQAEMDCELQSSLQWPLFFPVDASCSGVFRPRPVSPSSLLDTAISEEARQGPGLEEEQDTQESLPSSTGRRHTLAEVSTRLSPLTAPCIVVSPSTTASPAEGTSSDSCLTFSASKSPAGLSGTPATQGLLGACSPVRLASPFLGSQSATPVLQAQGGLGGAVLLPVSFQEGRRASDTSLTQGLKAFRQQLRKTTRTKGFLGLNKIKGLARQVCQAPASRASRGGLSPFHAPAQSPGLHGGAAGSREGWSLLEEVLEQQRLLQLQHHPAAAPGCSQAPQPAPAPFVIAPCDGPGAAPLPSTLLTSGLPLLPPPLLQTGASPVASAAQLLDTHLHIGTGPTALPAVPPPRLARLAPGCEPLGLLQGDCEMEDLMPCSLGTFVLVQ

DAPK2(h), sequence (Q9UIK4 whole entry): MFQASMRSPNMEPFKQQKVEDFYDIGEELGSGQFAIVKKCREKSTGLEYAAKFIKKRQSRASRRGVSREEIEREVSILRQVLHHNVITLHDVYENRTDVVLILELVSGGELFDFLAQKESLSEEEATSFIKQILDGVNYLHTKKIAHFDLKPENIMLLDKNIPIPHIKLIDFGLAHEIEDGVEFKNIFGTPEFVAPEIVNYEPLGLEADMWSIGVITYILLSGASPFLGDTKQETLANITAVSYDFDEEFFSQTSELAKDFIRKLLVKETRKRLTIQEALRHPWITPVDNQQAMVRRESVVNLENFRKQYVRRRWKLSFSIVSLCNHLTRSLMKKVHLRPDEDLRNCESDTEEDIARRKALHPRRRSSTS
MST3(h), sequence (Q9Y6E0 whole entry): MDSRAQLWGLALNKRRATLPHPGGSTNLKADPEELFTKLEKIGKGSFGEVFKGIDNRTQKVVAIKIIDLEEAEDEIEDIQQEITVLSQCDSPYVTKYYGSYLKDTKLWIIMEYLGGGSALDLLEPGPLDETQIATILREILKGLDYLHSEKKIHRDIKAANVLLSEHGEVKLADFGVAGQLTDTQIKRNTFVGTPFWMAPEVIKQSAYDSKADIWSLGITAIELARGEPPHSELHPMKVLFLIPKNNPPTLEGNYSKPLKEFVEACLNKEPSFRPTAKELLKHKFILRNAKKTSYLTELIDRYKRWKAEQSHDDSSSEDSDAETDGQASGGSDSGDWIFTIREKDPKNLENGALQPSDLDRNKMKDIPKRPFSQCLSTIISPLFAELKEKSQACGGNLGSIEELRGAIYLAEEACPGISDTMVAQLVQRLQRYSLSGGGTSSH
SAPK2a(h), sequence (Q16539 whole entry): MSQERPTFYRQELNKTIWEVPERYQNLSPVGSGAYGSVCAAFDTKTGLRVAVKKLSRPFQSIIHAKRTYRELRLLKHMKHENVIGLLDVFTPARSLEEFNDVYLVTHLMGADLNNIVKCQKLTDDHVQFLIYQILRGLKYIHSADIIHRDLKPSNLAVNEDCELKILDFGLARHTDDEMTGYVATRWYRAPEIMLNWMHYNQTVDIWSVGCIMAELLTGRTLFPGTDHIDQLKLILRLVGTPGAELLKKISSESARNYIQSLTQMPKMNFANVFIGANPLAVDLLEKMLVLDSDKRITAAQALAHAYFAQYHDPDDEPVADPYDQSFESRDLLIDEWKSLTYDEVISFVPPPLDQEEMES
PKBγ(h), sequence (Q9Y243 whole entry): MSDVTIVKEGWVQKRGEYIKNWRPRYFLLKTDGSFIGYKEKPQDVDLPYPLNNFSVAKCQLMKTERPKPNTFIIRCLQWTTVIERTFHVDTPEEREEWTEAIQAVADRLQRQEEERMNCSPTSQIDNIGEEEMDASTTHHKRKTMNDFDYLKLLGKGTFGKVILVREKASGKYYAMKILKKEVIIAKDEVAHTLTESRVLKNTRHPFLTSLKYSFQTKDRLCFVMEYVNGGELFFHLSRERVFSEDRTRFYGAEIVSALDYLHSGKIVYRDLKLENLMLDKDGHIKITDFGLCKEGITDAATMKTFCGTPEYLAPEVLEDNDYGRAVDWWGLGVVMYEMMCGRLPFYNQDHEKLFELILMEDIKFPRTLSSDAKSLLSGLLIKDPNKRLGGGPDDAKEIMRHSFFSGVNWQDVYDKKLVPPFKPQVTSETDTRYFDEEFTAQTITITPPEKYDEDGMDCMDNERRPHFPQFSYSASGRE
PAK5(h), sequence (Q9P286 whole entry): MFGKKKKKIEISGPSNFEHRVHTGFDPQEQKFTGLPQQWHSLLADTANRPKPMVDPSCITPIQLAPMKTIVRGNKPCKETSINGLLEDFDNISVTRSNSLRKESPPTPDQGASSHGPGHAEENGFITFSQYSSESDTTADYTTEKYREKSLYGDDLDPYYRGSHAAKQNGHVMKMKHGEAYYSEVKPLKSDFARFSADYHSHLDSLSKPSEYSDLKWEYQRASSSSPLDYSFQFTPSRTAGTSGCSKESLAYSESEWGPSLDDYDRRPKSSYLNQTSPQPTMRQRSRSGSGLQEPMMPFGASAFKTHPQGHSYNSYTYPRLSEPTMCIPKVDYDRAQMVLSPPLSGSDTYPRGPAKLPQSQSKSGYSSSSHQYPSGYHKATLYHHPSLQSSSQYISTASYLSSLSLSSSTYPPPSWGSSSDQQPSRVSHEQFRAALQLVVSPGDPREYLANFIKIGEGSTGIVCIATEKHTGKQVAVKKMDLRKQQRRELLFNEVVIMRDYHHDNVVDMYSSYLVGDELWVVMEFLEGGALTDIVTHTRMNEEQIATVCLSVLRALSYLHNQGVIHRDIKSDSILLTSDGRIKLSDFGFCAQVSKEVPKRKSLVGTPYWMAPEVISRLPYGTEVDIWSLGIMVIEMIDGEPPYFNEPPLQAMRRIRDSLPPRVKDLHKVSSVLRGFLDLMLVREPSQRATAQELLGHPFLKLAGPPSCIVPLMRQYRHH
p70S6K(h), sequence (P23443 whole entry): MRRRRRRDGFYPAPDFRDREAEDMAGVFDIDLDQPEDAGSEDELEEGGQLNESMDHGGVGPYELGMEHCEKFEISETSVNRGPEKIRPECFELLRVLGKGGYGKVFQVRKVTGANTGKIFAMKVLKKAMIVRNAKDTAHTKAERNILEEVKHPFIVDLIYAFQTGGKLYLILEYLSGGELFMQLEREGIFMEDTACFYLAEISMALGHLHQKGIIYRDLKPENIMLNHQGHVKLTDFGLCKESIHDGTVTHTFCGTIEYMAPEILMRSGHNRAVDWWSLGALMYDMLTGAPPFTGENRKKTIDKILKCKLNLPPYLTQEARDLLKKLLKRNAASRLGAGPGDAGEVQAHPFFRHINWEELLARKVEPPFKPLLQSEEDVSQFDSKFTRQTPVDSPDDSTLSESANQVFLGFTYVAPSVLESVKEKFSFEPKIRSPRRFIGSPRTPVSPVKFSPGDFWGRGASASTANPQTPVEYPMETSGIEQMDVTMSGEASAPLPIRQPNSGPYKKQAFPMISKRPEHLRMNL

Regarding HRRIKAWLKKIKALARQLGVAA [MMI-0500], the “% activity” value in [1] is reported as 20%; in assay [2] it was 20%; in [3], 3%; in [4] it was 177%; in assay [5] it was 10%; in assay [6], 3%. In addition, the “% activity” value amounted to 125% in [7]; 12% in assay [8]; 30% in assay [9]; 4% in assay [10]; 52% in assay [11]; 63% in [12]. For the same sequence, in assay [13], the “% activity” value is recorded as 40%.
On to YARAAARQARAKALNRQLGVA [MMI-0200], for which the “% activity” value in assay [1] is on record as 100%; in assay [3], 92%; in [4] it was 164%; in assay [5], 78%; in [6], 84%; in assay [7] it was 100%. The “% activity” value in assay [8] is recorded as 73%; in assay [9] it was 32%; in [10] it was 95%; in [12], 88%.
For KAFAKLAARLYRKALARQLGVAA [MMI-0400], the “% activity” value was determined as 73% in [1]; 41% in assay [2]; 16% in assay [3]; 147% in assay [4]; 25% in assay [5]; 33% in assay [6]. Also, the “% activity” value in [8] is on record as 18%; in [9], 14%; in assay [10] it was 36%; in assay [11], 85%; in assay [12], 89%; in [13] it was 68%.
For the sequence FAKLAARLYRKALARQLGVAA [MMI-0300], the “% activity” value in assay [1] is recorded as 79%; in [2], 20%; in assay [3] it was 32%; in assay [4], 167%; in assay [5], 33%; in assay [6], 35%. Moreover, the “% activity” value in assay [7] worked out at 110%; in assay [8] it was 14%; in [9], 26%; in assay [10], 45%; in assay [11], 90%; in [12], 88%. The “% activity” value in assay [13] was 66%.
